Assay results reported in US20050148763A1, “Peg-binding pth or peg-binding pth derivative” (Chugai Seiyaku Kabushiki Kaisha, priority 2002, published 2005).

Legend:
rat PTH1 receptors = biological target: T1, rat PTH1 receptors (Rattus norvegicus, UniProt P25961); assay: in vitro ability to produce cAMP, EW29 cells; assay type: cell-based; details: Table 2(3), n=2-3; for EC50: cAMP production
T1 construct: expressed in transfected cells; host or cells: EW29 cells
T1 sequence (P25961 27-591): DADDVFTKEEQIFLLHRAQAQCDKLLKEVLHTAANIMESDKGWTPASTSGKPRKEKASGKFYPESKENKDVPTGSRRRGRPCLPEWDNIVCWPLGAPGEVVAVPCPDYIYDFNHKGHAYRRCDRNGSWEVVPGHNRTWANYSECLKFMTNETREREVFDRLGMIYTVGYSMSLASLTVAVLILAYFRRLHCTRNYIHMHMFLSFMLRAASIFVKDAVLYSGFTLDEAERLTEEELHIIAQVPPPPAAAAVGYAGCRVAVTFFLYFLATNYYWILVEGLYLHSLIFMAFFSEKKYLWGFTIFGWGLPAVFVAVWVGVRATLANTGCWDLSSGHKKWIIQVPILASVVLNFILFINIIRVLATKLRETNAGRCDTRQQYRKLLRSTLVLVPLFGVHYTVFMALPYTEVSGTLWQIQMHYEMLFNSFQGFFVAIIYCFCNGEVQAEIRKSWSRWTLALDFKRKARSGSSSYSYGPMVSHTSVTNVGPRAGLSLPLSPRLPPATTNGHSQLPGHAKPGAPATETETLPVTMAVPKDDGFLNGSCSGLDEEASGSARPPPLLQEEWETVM
Method: (§1) Each PEG-PTH sample was assayed for its ability to produce cAMP (indicative of the increasing effect of PTH on bone mass) as follows. […] These cells were seeded in 96-well plates at 1×10^5 cells/well and incubated overnight. […] After removing the reaction solution, the plates were placed on powdered dry ice to freeze the cells and then removed from the dry ice. The cells were thawed with 50 μL of 50 mM HCl and frozen again on dry ice. The level of intracellular cAMP was determined with a commercially available EIA kit (Biotrak cAMP EIA system, Amersham).

human PTH1 receptors [1] = biological target: T2, human PTH1 receptors (Homo sapiens, UniProt Q03431); assay: in vitro ability to produce cAMP, HKRK-B64 cells; assay type: cell-based; details: Table 2(2), n=2-3; for EC50: cAMP production
T2 construct: expressed in transfected cells; host or cells: HKRK-B7 and HKRK-B64 cells (derived from pig kidney LLC-PK1 cells)
T2 sequence (Q03431 27-593): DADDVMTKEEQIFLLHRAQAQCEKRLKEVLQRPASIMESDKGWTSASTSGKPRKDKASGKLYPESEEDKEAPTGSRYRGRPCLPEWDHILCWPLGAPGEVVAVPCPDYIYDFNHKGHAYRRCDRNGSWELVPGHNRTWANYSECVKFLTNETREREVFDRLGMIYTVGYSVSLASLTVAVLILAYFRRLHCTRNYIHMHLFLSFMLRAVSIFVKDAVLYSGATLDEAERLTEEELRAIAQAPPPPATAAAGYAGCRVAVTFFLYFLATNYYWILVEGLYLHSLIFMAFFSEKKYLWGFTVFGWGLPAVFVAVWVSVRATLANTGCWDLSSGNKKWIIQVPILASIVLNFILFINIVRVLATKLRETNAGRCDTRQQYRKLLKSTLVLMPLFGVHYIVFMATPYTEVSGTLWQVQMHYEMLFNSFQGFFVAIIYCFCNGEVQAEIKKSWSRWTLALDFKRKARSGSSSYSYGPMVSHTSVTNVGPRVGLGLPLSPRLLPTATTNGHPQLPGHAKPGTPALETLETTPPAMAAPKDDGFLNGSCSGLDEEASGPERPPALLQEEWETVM
Method: Each PEG-PTH sample was assayed for its ability to produce cAMP (indicative of the increasing effect of PTH on bone mass) as follows. HKRK-B7 and HKRK-B64 cells, genetically modified from pig kidney-derived LLC-PK1 cells to overexpress human PTH1 receptors at levels of about 1×10^6 and 9×10^4 receptors per cell, respectively, as well as EW29 cells expressing about 1.9×10^5 rat PTH1 receptors per cell (Takasu et al., J. Bone. Miner. Res. 14: 11-20, 1999) were grown in DMEM supplemented with 10% FBS, 1% penicillin and 1% streptomycin. These cells were seeded in 96-well plates at 1×10^5 cells/well and incubated overnight. On the following day, the cells were washed once with 200 μL binding buffer (50 mM Tris-HCl/100 mM NaCl/5 mM KCl/2 mM CaCl2/5% inactivated horse serum/0.5% inactivated bovine serum, pH 7.7), followed by addition of 100 μL cAMP assay buffer (DMEM/2 mM 3-isobutyl-1-methylxanthine/1 mg/mL bovine serum albumin/35 mM HEPES-NaOH, pH 7.4) on ice. […] After removing the reaction solution, the plates were placed on powdered dry ice to freeze the cells and then removed from the dry ice. The cells were thawed with 50 μL of 50 mM HCl and frozen again on dry ice. The level of intracellular cAMP was determined with a commercially available EIA kit (Biotrak cAMP EIA system, Amersham).

[2] = Hypercalcemic effect of PEG-[Cys^35]-PTH(1-35) in normal female DDY mice; assay type: in vivo; details: for Blood iCa level Hour 1: 1 hour after administration; for Blood iCa level Hour 3: 3 hours; for Blood iCa level Hour 6: 6 hours; for Blood iCa level Hour 9: 9 hours; for Blood iCa level Hour 24: 24 hours; for Blood iCa level Hour 0: before administration; for hypercalcemic effect (in words): 10-150 nmol/kg
Method: 2 k, 5 k and 20 k PEG-[Cys^35]-PTH(1-35) were also adjusted similarly to 30, 10 and 2 nmol/mL (calculated as PTH) and allowed to stand on ice immediately before administration.
Using female DDY mice at 6 weeks of age (Japan SLC, Inc.), the corrected level of ionized calcium at pH 7.4 was determined for each sample in the same manner as shown in (1) above. The mice received subcutaneous administration of each drug at a dose of 5 mL/kg. The buffer was administered to a group of 5 mice. […] 150 nmol/kg 2 k, 5 k and 20 k PEG-[Cys^35]-PTH(1-35) were administered to groups of 4 mice each. 50 and 10 nmol/kg 2 k, 5 k and 20 k PEG-[Cys^35]-PTH(1-35) were administered to groups of 5 mice each. At 1, 3, 6, 9 and 24 hours after administration, blood was collected by orbital puncture to monitor the time course of corrected blood ionized calcium levels.

human PTH1 receptors [3] = biological target: T2, human PTH1 receptors; assay: in vitro ability to produce cAMP, HKRK-B7 cells; assay type: cell-based; details: Table 2(1), n=2-3; for EC50: cAMP production
Method: as §1

[4] = Pharmacokinetics and bioavailability in rats by subcutaneous route; assay type: in vivo; details: subcutaneous, 80 μg/mL at 1 mL/kg
Method: Each sample was adjusted to 80 μg/mL by dilution with 25 mmol/L citrate-phosphate buffer (pH 5.0) containing 100 mmol/L NaCl and 0.05 vol % Tween 20 to give a solution for administration. Male SD rats at 6 weeks of age (CLEA Japan, Inc.) were provided for this experiment. Intravenous injection was performed on rats having polyethylene tubes (SP-31, Natsume Seisakusho Co., Ltd.) inserted into the femoral artery and vein. The solutions thus prepared were each administered at a dose of 1 mL/kg through a polyethylene tube inserted into the femoral vein, and blood was collected through a polyethylene tube inserted into the femoral artery before administration and at 5, 15, 30 and 45 minutes as well as 1, 2, 4, 6, 8 and 24 hours after administration. Subcutaneous administration was performed on rats having polyethylene tubes inserted into the femoral artery. The solutions prepared above were each subcutaneously administered at a dose of 1 mL/kg to the dorsal neck region of the rats, and blood was collected in the same manner as used for intravenous injection. These blood samples were centrifuged to collect plasma and stored at −40° C. until assayed for PTH(1-34) or PEG-PTH(1-34) levels.
The level of PTH(1-34) or PEG-PTH(1-34) was determined by RIA analysis using a Rat PTH IRMA Kit (Immutopics). A Cobra Quantum Model 5005 gamma counter (Packard) was used to measure radioactivity for each sample. The plasma level of PTH(1-34) or PEG-PTH(1-34) was calculated from a calibration curve prepared using PTH(1-34) or PEG-PTH(1-34). The Winnonlin program Ver. 2.1 (Scientific Consulting Inc.) was used to analyze the time course of changes in the calculated plasma PTH(1-34) or PEG-PTH(1-34) levels (FIG. 3: by intravenous route; FIG. 4: by subcutaneous route) to calculate the following as pharmacokinetic parameters: time required to reach the maximum plasma level (Tmax); maximum plasma level (Cmax); area under the curve of plasma levels (AUC); plasma half-life (t1/2); total body clearance (Cltotal); mean residence time in the body (MRT); and bioavailability (BA). […]

| Maximum cAMP response (rat PTH1 receptors) | EC50 (rat PTH1 receptors) | Maximum cAMP response (human PTH1 receptors [1]) | EC50 (human PTH1 receptors [1]) | Substance | Blood iCa level Hour 1 ([2]; 10 nmol/kg sc) | Blood iCa level Hour 3 ([2]; 10 nmol/kg sc) | Blood iCa level Hour 6 ([2]; 10 nmol/kg sc) | Blood iCa level Hour 9 ([2]; 10 nmol/kg sc) | Blood iCa level Hour 24 ([2]; 10 nmol/kg sc) | Blood iCa level Hour 0 ([2]; 10 nmol/kg sc) | Blood iCa level Hour 1 ([2]; 50 nmol/kg sc) | Blood iCa level Hour 3 ([2]; 50 nmol/kg sc) | Blood iCa level Hour 6 ([2]; 50 nmol/kg sc) | Blood iCa level Hour 9 ([2]; 50 nmol/kg sc) | Blood iCa level Hour 24 ([2]; 50 nmol/kg sc) | Blood iCa level Hour 0 ([2]; 50 nmol/kg sc) | Blood iCa level Hour 1 ([2]; 150 nmol/kg sc) | Blood iCa level Hour 3 ([2]; 150 nmol/kg sc) | Blood iCa level Hour 6 ([2]; 150 nmol/kg sc) | Blood iCa level Hour 9 ([2]; 150 nmol/kg sc) | other results |
| --- | --- | --- | --- | --- | --- | --- | --- | --- | --- | --- | --- | --- | --- | --- | --- | --- | --- | --- | --- | --- | --- |
| 52.5 ± 14.1 pmol/well | 3.5 nM | 66.6 ± 17.4 pmol/well | 1 nM | 5 k PEG-[Cys^35]-hPTH(1-35): [Cys^35]-hPTH(1-35) conjugated with 5 kDa PEG (SVSEIQLMHNLGKHLNSMERVEWLRKKLQDVHNFC; Parathyroid hormone 5 kDa PEG at Cys35; UniProt P01270 32-66, looked up, variant V35C) | 1.44 ± 0.02 mM | 1.50 ± 0.02 mM | 1.43 ± 0.02 mM | 1.28 ± 0.04 mM | 1.36 ± 0.03 mM | 1.30 ± 0.04 mM | 1.43 ± 0.03 mM | 1.49 ± 0.04 mM | 1.48 ± 0.03 mM | 1.35 ± 0.06 mM | 1.36 ± 0.04 mM | 1.31 ± 0.03 mM | 1.43 ± 0.04 mM | 1.49 ± 0.03 mM | 1.52 ± 0.05 mM | 1.35 ± 0.02 mM | Blood iCa level Hour 24 ([2]; 150 nmol/kg sc): 1.40 ± 0.05 mM; Blood iCa level Hour 0 ([2]; 150 nmol/kg sc): 1.30 ± 0.03 mM; increased blood ionized calcium level maintained until ([2]; female DDY mice, sc): 6 h; time of maximum increase in blood ionized calcium levels after administration ([2]; female DDY mice, sc): 3 h; Maximum cAMP response (human PTH1 receptors [3]): 122.7 ± 11.5 pmol/well; EC50 (human PTH1 receptors [3]): 0.9 nM |
| 59.4 ± 12.9 pmol/well | 9.1 nM | 79.6 ± 14.6 pmol/well | 8 nM | 20 k PEG-[Cys^35]-hPTH(1-35): [Cys^35]-hPTH(1-35) conjugated with 20 kDa PEG (SVSEIQLMHNLGKHLNSMERVEWLRKKLQDVHNFC; Parathyroid hormone 20 kDa PEG at Cys35; UniProt P01270 32-66, looked up, variant V35C) | 1.39 ± 0.03 mM | 1.51 ± 0.01 mM | 1.48 ± 0.05 mM | 1.43 ± 0.05 mM | 1.78 ± 0.09 mM | 1.27 ± 0.04 mM | 1.44 ± 0.03 mM | 1.53 ± 0.02 mM | 1.51 ± 0.03 mM | 1.44 ± 0.06 mM | 2.44 ± 0.12 mM | 1.30 ± 0.04 mM | 1.42 ± 0.02 mM | 1.54 ± 0.02 mM | 1.55 ± 0.03 mM | 1.43 ± 0.06 mM | Blood iCa level Hour 24 ([2]; 150 nmol/kg sc): 2.71 ± 0.19 mM; Blood iCa level Hour 0 ([2]; 150 nmol/kg sc): 1.30 ± 0.02 mM; hypercalcemic effect (in words) ([2]; female DDY mice, sc, listed as 20 k PEG-(Cys^35]-PTH(1-35)): very high blood ionized calcium levels at all tested doses; hypercalcemic effect (in words) ([2]; female DDY mice, sc, listed as 20 k PEG-[Cys^35]-PTH (1-35)): maintained a significantly higher level than that of the buffer group even at 9 hours after administration; Maximum cAMP response (human PTH1 receptors [3]): 131.1 ± 7.5 pmol/well; EC50 (human PTH1 receptors [3]): 2.7 nM |
|  |  |  |  | 20k PEG-hPTH(1-34): hPTH(1-34) reacted with mPEG 20 k-SPA, fraction having one 20 kDa PEG molecule per PTH molecule |  |  |  |  |  |  |  |  |  |  |  |  |  |  |  |  | AUC [4]: 2.693945 µg·h/mL; MRT [4]: 18.93 h; Tmax [4]: 7.000 h; t ½ [4]: 11.346 h |
